In US20250171562A1 (ALK ABELL, published 2025) one finds EC50 and Max effect data, which are given here for eight molecules.

B1: CIgG4F4A1(G4S)2 (Fc fusion)
chain 1: GPPCPPCPAPEFLGGPSVFLFPPKPKDTLMISRTPEVTCVVVDVSQEDPEVQFNWYVDGVEVHNAKTKPREEQFNSTYRVVSVLTVLHQDWLNGKEYKCKVSNKGLPSSIEKTISKAKGQPREPQVYTLPPCQEEMTKNQVSLWCLVKGFYPSDIAVEWESNGQPENNYKTTPPVLDSDGSFFLYSRLTVDKSRWQEGNVFSCSVMHEALHNHYTQKSLSLSLGKGGGGSGGGGSDVQLQESGGGLVQAGGSLRLSCAVSGLSFSSMGWFRQPPGKEREFVAAISLYSGSTYYADSVKGRFTISSDNAKSTVYLQMNSLKPEDAAVYFCAADRQRTWSTFYASRQATYNYWGQGTQVTVTS
chain 2: GPPCPPCPAPEFLGGPSVFLFPPKPKDTLMISRTPEVTCVVVDVSQEDPEVQFNWYVDGVEVHNAKTKPREEQFNSTYRVVSVLTVLHQDWLNGKEYKCKVSNKGLPSSIEKTISKAKGQPREPQVCTLPPSQEEMTKNQVSLSCAVKGFYPSDIAVEWESNGQPENNYKTTPPVLDSDGSFFLVSRLTVDKSRWQEGNVFSCSVMHEALHNHYTQKSLSLSLGKGGGGSGGGGSEVQLLESGGGLVQPGGSLRLSCAASGFTFGNYDMAWVRQAPGKRPEWVSSIDTGGDITHYADSVKGRFTISRDNAKNTLYLQMNSLRPEDTAVYWCATDEEYALGPNEFDYYGQGTLVTVSS
B2: CIgG4F5A1(G4S)2 (Fc fusion)
chain 1: GPPCPPCPAPEFLGGPSVFLFPPKPKDTLMISRTPEVTCVVVDVSQEDPEVQFNWYVDGVEVHNAKTKPREEQFNSTYRVVSVLTVLHQDWLNGKEYKCKVSNKGLPSSIEKTISKAKGQPREPQVYTLPPCQEEMTKNQVSLWCLVKGFYPSDIAVEWESNGQPENNYKTTPPVLDSDGSFFLYSRLTVDKSRWQEGNVFSCSVMHEALHNHYTQKSLSLSLGKGGGGSGGGGSDVQLQESGGGLVQPGGSLRLSCAASGSIFSIDIMGWYRQAPGKQRELVATMPEGNYINYADSVKGRLTLSRDKGKNTVYLQLNSLKPEDTAVYYCYGFGVREGRGNVYWGQGTQVTVS
chain 2: GPPCPPCPAPEFLGGPSVFLFPPKPKDTLMISRTPEVTCVVVDVSQEDPEVQFNWYVDGVEVHNAKTKPREEQFNSTYRVVSVLTVLHQDWLNGKEYKCKVSNKGLPSSIEKTISKAKGQPREPQVCTLPPSQEEMTKNQVSLSCAVKGFYPSDIAVEWESNGQPENNYKTTPPVLDSDGSFFLVSRLTVDKSRWQEGNVFSCSVMHEALHNHYTQKSLSLSLGKGGGGSGGGGSEVQLLESGGGLVQPGGSLRLSCAASGFTFGNYDMAWVRQAPGKRPEWVSSIDTGGDITHYADSVKGRFTISRDNAKNTLYLQMNSLRPEDTAVYWCATDEEYALGPNEFDYYGQGTLVTVSS
B3: CIgG4F5A1(RS) (Fc fusion)
chain 1: GPPCPPCPAPEFLGGPSVFLFPPKPKDTLMISRTPEVTCVVVDVSQEDPEVQFNWYVDGVEVHNAKTKPREEQFNSTYRVVSVLTVLHQDWLNGKEYKCKVSNKGLPSSIEKTISKAKGQPREPQVYTLPPCQEEMTKNQVSLWCLVKGFYPSDIAVEWESNGQPENNYKTTPPVLDSDGSFFLYSRLTVDKSRWQEGNVFSCSVMHEALHNHYTQKSLSLSLGKRSDVQLQESGGGLVQPGGSLRLSCAASGSIFSIDIMGWYRQAPGKQRELVATMPEGNYINYADSVKGRLTLSRDKGKNTVYLQLNSLKPEDTAVYYCYGFGVREGRGNVYWGQGTQVTVS
chain 2: GPPCPPCPAPEFLGGPSVFLFPPKPKDTLMISRTPEVTCVVVDVSQEDPEVQFNWYVDGVEVHNAKTKPREEQFNSTYRVVSVLTVLHQDWLNGKEYKCKVSNKGLPSSIEKTISKAKGQPREPQVCTLPPSQEEMTKNQVSLSCAVKGFYPSDIAVEWESNGQPENNYKTTPPVLDSDGSFFLVSRLTVDKSRWQEGNVFSCSVMHEALHNHYTQKSLSLSLGKRSEVQLLESGGGLVQPGGSLRLSCAASGFTFGNYDMAWVRQAPGKRPEWVSSIDTGGDITHYADSVKGRFTISRDNAKNTLYLQMNSLRPEDTAVYWCATDEEYALGPNEFDYYGQGTLVTVSS
B4: CIgG4F6A1(RS) (Fc fusion)
chain 1: GPPCPPCPAPEFLGGPSVFLFPPKPKDTLMISRTPEVTCVVVDVSQEDPEVQFNWYVDGVEVHNAKTKPREEQFNSTYRVVSVLTVLHQDWLNGKEYKCKVSNKGLPSSIEKTISKAKGQPREPQVYTLPPCQEEMTKNQVSLWCLVKGFYPSDIAVEWESNGQPENNYKTTPPVLDSDGSFFLYSRLTVDKSRWQEGNVFSCSVMHEALHNHYTQKSLSLSLGKRSDVQLQESGGGLVQAGGSLRLSCAASGLTFGSYDMGWYRQAPGKQRELVGRIRNDGITYYADSVKGRFTMSRDNAKNTVYLQMNSLKPEDTAVYYCAADGTGLGHYDYWGQGTQVTVS
chain 2: GPPCPPCPAPEFLGGPSVFLFPPKPKDTLMISRTPEVTCVVVDVSQEDPEVQFNWYVDGVEVHNAKTKPREEQFNSTYRVVSVLTVLHQDWLNGKEYKCKVSNKGLPSSIEKTISKAKGQPREPQVCTLPPSQEEMTKNQVSLSCAVKGFYPSDIAVEWESNGQPENNYKTTPPVLDSDGSFFLVSRLTVDKSRWQEGNVFSCSVMHEALHNHYTQKSLSLSLGKRSEVQLLESGGGLVQPGGSLRLSCAASGFTFGNYDMAWVRQAPGKRPEWVSSIDTGGDITHYADSVKGRFTISRDNAKNTLYLQMNSLRPEDTAVYWCATDEEYALGPNEFDYYGQGTLVTVSS
B5: CIgG4F4A1(G4S)3 (Fc fusion)
chain 1: GPPCPPCPAPEFLGGPSVFLFPPKPKDTLMISRTPEVTCVVVDVSQEDPEVQFNWYVDGVEVHNAKTKPREEQFNSTYRVVSVLTVLHQDWLNGKEYKCKVSNKGLPSSIEKTISKAKGQPREPQVYTLPPCQEEMTKNQVSLWCLVKGFYPSDIAVEWESNGQPENNYKTTPPVLDSDGSFFLYSRLTVDKSRWQEGNVFSCSVMHEALHNHYTQKSLSLSLGKGGGGSGGGGSGGGGSDVQLQESGGGLVQAGGSLRLSCAVSGLSFSSMGWFRQPPGKEREFVAAISLYSGSTYYADSVKGRFTISSDNAKSTVYLQMNSLKPEDAAVYFCAADRQRTWSTFYASRQATYNYWGQGTQVTVTS
chain 2: GPPCPPCPAPEFLGGPSVFLFPPKPKDTLMISRTPEVTCVVVDVSQEDPEVQFNWYVDGVEVHNAKTKPREEQFNSTYRVVSVLTVLHQDWLNGKEYKCKVSNKGLPSSIEKTISKAKGQPREPQVCTLPPSQEEMTKNQVSLSCAVKGFYPSDIAVEWESNGQPENNYKTTPPVLDSDGSFFLVSRLTVDKSRWQEGNVFSCSVMHEALHNHYTQKSLSLSLGKGGGGSGGGGSGGGGSEVQLLESGGGLVQPGGSLRLSCAASGFTFGNYDMAWVRQAPGKRPEWVSSIDTGGDITHYADSVKGRFTISRDNAKNTLYLQMNSLRPEDTAVYWCATDEEYALGPNEFDYYGQGTLVTVSS
B6: CIgG4F5A1(G4S)3 (Fc fusion)
chain 1: GPPCPPCPAPEFLGGPSVFLFPPKPKDTLMISRTPEVTCVVVDVSQEDPEVQFNWYVDGVEVHNAKTKPREEQFNSTYRVVSVLTVLHQDWLNGKEYKCKVSNKGLPSSIEKTISKAKGQPREPQVYTLPPCQEEMTKNQVSLWCLVKGFYPSDIAVEWESNGQPENNYKTTPPVLDSDGSFFLYSRLTVDKSRWQEGNVFSCSVMHEALHNHYTQKSLSLSLGKGGGGSGGGGSGGGGSDVQLQESGGGLVQPGGSLRLSCAASGSIFSIDIMGWYRQAPGKQRELVATMPEGNYINYADSVKGRLTLSRDKGKNTVYLQLNSLKPEDTAVYYCYGFGVREGRGNVYWGQGTQVTVS
chain 2: GPPCPPCPAPEFLGGPSVFLFPPKPKDTLMISRTPEVTCVVVDVSQEDPEVQFNWYVDGVEVHNAKTKPREEQFNSTYRVVSVLTVLHQDWLNGKEYKCKVSNKGLPSSIEKTISKAKGQPREPQVCTLPPSQEEMTKNQVSLSCAVKGFYPSDIAVEWESNGQPENNYKTTPPVLDSDGSFFLVSRLTVDKSRWQEGNVFSCSVMHEALHNHYTQKSLSLSLGKGGGGSGGGGSGGGGSEVQLLESGGGLVQPGGSLRLSCAASGFTFGNYDMAWVRQAPGKRPEWVSSIDTGGDITHYADSVKGRFTISRDNAKNTLYLQMNSLRPEDTAVYWCATDEEYALGPNEFDYYGQGTLVTVSS
B7: CIgG4F4A1(G4S)1 (Fc fusion)
chain 1: GPPCPPCPAPEFLGGPSVFLFPPKPKDTLMISRTPEVTCVVVDVSQEDPEVQFNWYVDGVEVHNAKTKPREEQFNSTYRVVSVLTVLHQDWLNGKEYKCKVSNKGLPSSIEKTISKAKGQPREPQVYTLPPCQEEMTKNQVSLWCLVKGFYPSDIAVEWESNGQPENNYKTTPPVLDSDGSFFLYSRLTVDKSRWQEGNVFSCSVMHEALHNHYTQKSLSLSLGKGGGGSDVQLQESGGGLVQAGGSLRLSCAVSGLSFSSMGWFRQPPGKEREFVAAISLYSGSTYYADSVKGRFTISSDNAKSTVYLQMNSLKPEDAAVYFCAADRQRTWSTFYASRQATYNYWGQGTQVTVTS
chain 2: GPPCPPCPAPEFLGGPSVFLFPPKPKDTLMISRTPEVTCVVVDVSQEDPEVQFNWYVDGVEVHNAKTKPREEQFNSTYRVVSVLTVLHQDWLNGKEYKCKVSNKGLPSSIEKTISKAKGQPREPQVCTLPPSQEEMTKNQVSLSCAVKGFYPSDIAVEWESNGQPENNYKTTPPVLDSDGSFFLVSRLTVDKSRWQEGNVFSCSVMHEALHNHYTQKSLSLSLGKGGGGSEVQLLESGGGLVQPGGSLRLSCAASGFTFGNYDMAWVRQAPGKRPEWVSSIDTGGDITHYADSVKGRFTISRDNAKNTLYLQMNSLRPEDTAVYWCATDEEYALGPNEFDYYGQGTLVTVSS
B8: CIgG4F5A1(G4S)1 (Fc fusion)
chain 1: GPPCPPCPAPEFLGGPSVFLFPPKPKDTLMISRTPEVTCVVVDVSQEDPEVQFNWYVDGVEVHNAKTKPREEQFNSTYRVVSVLTVLHQDWLNGKEYKCKVSNKGLPSSIEKTISKAKGQPREPQVYTLPPCQEEMTKNQVSLWCLVKGFYPSDIAVEWESNGQPENNYKTTPPVLDSDGSFFLYSRLTVDKSRWQEGNVFSCSVMHEALHNHYTQKSLSLSLGKGGGGSDVQLQESGGGLVQPGGSLRLSCAASGSIFSIDIMGWYRQAPGKQRELVATMPEGNYINYADSVKGRLTLSRDKGKNTVYLQLNSLKPEDTAVYYCYGFGVREGRGNVYWGQGTQVTVS
chain 2: GPPCPPCPAPEFLGGPSVFLFPPKPKDTLMISRTPEVTCVVVDVSQEDPEVQFNWYVDGVEVHNAKTKPREEQFNSTYRVVSVLTVLHQDWLNGKEYKCKVSNKGLPSSIEKTISKAKGQPREPQVCTLPPSQEEMTKNQVSLSCAVKGFYPSDIAVEWESNGQPENNYKTTPPVLDSDGSFFLVSRLTVDKSRWQEGNVFSCSVMHEALHNHYTQKSLSLSLGKGGGGSEVQLLESGGGLVQPGGSLRLSCAASGFTFGNYDMAWVRQAPGKRPEWVSSIDTGGDITHYADSVKGRFTISRDNAKNTLYLQMNSLRPEDTAVYWCATDEEYALGPNEFDYYGQGTLVTVSS

A word on the EC50: it is the concentration giving half of the maximal effect.

For the experiment, the target named is T1, recombinant human IgE (human, UniProt P01854-1 1-428).
T1 construct: made in-house (ALK); preloaded on immobilised FcεRIα in the displacement ELISA
T1 sequence (P01854 other isoform, or with tags, fused parts or gaps): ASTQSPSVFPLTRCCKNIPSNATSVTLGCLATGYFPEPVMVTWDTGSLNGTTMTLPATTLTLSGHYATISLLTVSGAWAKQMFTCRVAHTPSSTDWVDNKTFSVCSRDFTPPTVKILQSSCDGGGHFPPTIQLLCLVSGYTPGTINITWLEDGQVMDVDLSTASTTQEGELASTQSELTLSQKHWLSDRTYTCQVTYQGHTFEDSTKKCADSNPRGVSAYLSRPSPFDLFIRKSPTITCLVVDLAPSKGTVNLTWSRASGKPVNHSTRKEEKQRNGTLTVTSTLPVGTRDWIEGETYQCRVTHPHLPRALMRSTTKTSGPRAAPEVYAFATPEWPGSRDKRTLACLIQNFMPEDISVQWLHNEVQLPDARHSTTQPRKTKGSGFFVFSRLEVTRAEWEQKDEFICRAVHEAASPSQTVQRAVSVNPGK
Put plainly: IgE-FcεRIα displacement ELISA. The gist of the method:
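sdAbs at pM–μM were incubated 1 h on preformed complexes of 13 ng/ml recombinant human IgE with avi-tag-biotinylated human FcεRIα captured on streptavidin.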
As for B1, the EC50 worked out at 30 nM and the Max effect stood at 90%.

As to B2, the concentration giving a half-maximal response (EC50) was 580 nM and the Max effect came to 55%.

Turning to B3, the Max effect worked out at 15%.

For the molecule B4, the Max effect was found to be 20%.

Take B5: the EC50 was found to be 50 nM and the Max effect amounted to 90%.

Turning to B6, the EC50 was 400 nM and the Max effect was determined as 65%.

As for B7, the EC50 stood at 17 nM and the Max effect was found to be 90%.

As to B8, the Max effect is 30%.
